Laboratory results published in publication PMC11447106 (Clinical and Translational Medicine, 2024).
Changes are numbered by the printed parent chain.

Tests used:
[1] = molecular target: T1, GST-OGT^T444E (UniProt O15294-3 1-1036, T444E); experiment: pull-down; in vitro GST pull-down; GST-OGT^WT or GST-OGT^T444E with His-NRF2; details: both partners purified
T1 construct: OGT with T444E (mimics phosphorylation at Thr444); The printed Thr444 fits the 1036-residue isoform
T1 sequence (looked up): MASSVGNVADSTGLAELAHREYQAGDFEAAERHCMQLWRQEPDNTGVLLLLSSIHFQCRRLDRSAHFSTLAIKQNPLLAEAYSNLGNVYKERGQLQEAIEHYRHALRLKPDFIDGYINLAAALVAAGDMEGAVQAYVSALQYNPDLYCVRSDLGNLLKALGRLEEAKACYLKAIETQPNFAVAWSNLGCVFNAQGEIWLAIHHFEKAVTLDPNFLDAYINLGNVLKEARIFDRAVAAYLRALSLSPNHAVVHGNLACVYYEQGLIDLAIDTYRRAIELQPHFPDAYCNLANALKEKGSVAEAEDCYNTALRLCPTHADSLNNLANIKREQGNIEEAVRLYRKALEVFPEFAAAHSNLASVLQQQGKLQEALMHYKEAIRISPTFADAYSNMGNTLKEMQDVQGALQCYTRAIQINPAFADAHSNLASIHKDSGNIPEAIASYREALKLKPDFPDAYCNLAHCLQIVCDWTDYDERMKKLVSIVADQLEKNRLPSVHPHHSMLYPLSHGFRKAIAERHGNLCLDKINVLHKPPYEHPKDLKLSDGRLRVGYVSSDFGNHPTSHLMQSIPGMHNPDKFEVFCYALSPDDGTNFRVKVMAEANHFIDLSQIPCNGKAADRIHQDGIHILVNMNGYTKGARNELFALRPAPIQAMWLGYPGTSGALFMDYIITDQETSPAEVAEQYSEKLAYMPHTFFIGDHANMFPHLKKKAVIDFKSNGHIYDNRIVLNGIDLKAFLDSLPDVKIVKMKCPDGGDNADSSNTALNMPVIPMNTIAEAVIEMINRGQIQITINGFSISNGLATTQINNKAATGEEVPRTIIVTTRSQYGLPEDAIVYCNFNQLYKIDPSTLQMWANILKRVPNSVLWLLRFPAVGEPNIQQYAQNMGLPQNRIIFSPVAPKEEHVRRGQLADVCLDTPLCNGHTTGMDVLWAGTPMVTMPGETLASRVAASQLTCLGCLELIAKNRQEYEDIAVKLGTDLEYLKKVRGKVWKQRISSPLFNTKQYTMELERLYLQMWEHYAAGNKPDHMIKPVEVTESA

[2] = molecular target: T2, GST-OGT^WT (UniProt O15294-3 1-1036); experiment: as above; details: both partners purified
T2 construct: OGT, wild type; The printed Thr444 fits the 1036-residue isoform
T2 sequence (looked up): T1 sequence (looked up) with E444T

binding result [1]: binds
binding result [2]: binds
B1: His-NRF2 (natural protein, UniProt Q16236 1-605, looked up)
chain: MMDLELPPPGLPSQQDMDLIDILWRQDIDLGVSREVFDFSQRRKEYELEKQKKLEKERQEQLQKEQEKAFFAQLQLDEETGEFLPIQPAQHIQSETSGSANYSQVAHIPKSDALYFDDCMQLLAQTFPFVDDNEVSSATFQSLVPDIPGHIESPVFIATNQAQSPETSVAQVAPVDLDGMQQDIEQVWEELLSIPELQCLNIENDKLVETTMVPSPEAKLTEVDNYHFYSSIPSMEKEVGNCSPHFLNAFEDSFSSILSTEDPNQLTVNSLNSDATVNTDFGDEFYSAFIAEPSISNSMPSPATLSHSLSELLNGPIDVSDLSLCKAFNQNHPESTAEFNDSDSGISLNTSPSVASPEHSVESSSYGDTLLGLSDSEVEELDSAPGSVKQNGPKTPVHSSGDMVQPLSPSQGQSTHVHDAQCENTPEKELPVSPGHRKTPFTKDKHSSRLEAHLTRDELRAKALHIPFPVEKIINLPVVDFNEMMSKEQFNEAQLALIRDIRRRGKNKVAAQNCRKRKLENIVELEQDLDHLKDEKEKLLKEKGENDKSLHLLKKQLSTLYLEVFSMLRDEDGKPYSPSEYSLQQTRDGNVFLVPKSKKPDVKKN
notes: NRF2; Construct details are said to be in the Supplementary Information
